Measured values from the supplement of paper PMC10724198.
± gives the standard deviation of the averaged measurements.
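Also: PSI is a weighted mean of sequencing reads over stability bins, variants kept only with over 10 reads, mCherry proximal and sfGFP distal, peptide attached via GGGS linker.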

What follows are sequences tested on Saccharomyces cerevisiae (assay: protein stability index of tFT-peptide fusion (C-terminal peptide) (PSI (0-1 scale)); higher = more stable (slower turnover)). Details: genetic background: wild type; temperature: 30 C.
Procedure: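 Multiplexed protein stability (MPS) profiling in S. cerevisiae. Random 12-aa peptides (tFT-X12 library) are fused to the C-terminus of a sfGFP-mCherry tandem fluorescent timer, after mCherry and a GGGS linker. Cells are FACS-sorted into 8 mCherry/sfGFP bins and deep-sequenced. The protein stability index (PSI) is the read-weighted bin average, scaled from 0 (unstable) to 1 (stable). Only peptides with >10 reads are reported; cells were grown at 30 °C in SC-His with glucose.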
AAASWRVRIGRG gave a protein stability index of 0.7425 ± 0.004.
AAFERRDPDLKV gave a protein stability index of 0.766 ± 0.062.
Sequence AAIPPPLHTWRY has a protein stability index of 0.722 ± 0.054.
For AANRCSVLPLGF, the protein stability index was 0.601 ± 0.041.
In the case of AAPPPAPPPPPR, the protein stability index is reported as 0.694 ± 0.0082.
In the case of AAPSPHPLNSLS, the protein stability index is reported as 0.687 ± 0.036.
With AAQHNSLRGGPP the protein stability index was 0.731 ± 0.036.
With AASPRDPQKDHA the protein stability index was 0.711 ± 0.057.
AAVSRPLPLGPP gave a protein stability index of 0.693 ± 0.075.
AAYGCSGGEVGW showed a protein stability index of 0.68 ± 0.025.
Work on ACDFCIPGVRLD yielded a protein stability index of 0.745 ± 0.022.
ACDGIRRPVRGG gave a protein stability index of 0.697 ± 0.059.
ACEAERRTFRWV showed a protein stability index of 0.66 ± 0.012.
For ACGGVWASGRGG, the protein stability index was 0.705 ± 0.017.
With ACGLVSTSWYGA the protein stability index was 0.713 ± 0.086.
ACLCFIEFRCLL gave a protein stability index of 0.547 ± 0.017.
ACLWRLSWVLGK gave a protein stability index of 0.641 ± 0.037.
For ACLYDSMSVSSK, the protein stability index was 0.6386 ± 0.0012.
Sequence ACSPGHCTTGTS has a protein stability index of 0.649 ± 0.021.
In the case of ACTWASSSLARG, the protein stability index is reported as 0.735 ± 0.027.
With ACVGGGGMKVLG the protein stability index was 0.713 ± 0.065.
ADLEQTWRYRLD was tested, and the protein stability index was 0.674 ± 0.031.
In the case of ADSVVAGKGASV, the protein stability index is reported as 0.686 ± 0.031.
Sequence ADTIKRTKRSYP has a protein stability index of 0.643 ± 0.1.
For AECMLGLFSGVL, the protein stability index was 0.73 ± 0.033.
AEFSLFRPHSAA gave a protein stability index of 0.649 ± 0.11.
For AEGPAGNRGLGG, the protein stability index was 0.6564 ± 0.0058.
Sequence AEHSIFQLFPKD has a protein stability index of 0.7034 ± 0.002.
AELPPETKRLTR gave a protein stability index of 0.626 ± 0.04.
AERCCLHPPIPA showed a protein stability index of 0.541 ± 0.033.
For AFFLVLSAFRWI, the protein stability index was 0.541 ± 0.091.
AFFRPGISRPYG showed a protein stability index of 0.71 ± 0.0072.
With AFFSFLFSNSFL the protein stability index was 0.664 ± 0.0082.
In the case of AFFYLRGQESLL, the protein stability index is reported as 0.688 ± 0.077.
AFHFFLIPHSFF was tested, and the protein stability index was 0.639 ± 0.025.
For AFICGWSVGFGW, the protein stability index was 0.697 ± 0.0072.
Work on AFLLAVIRSSCV yielded a protein stability index of 0.55 ± 0.031.
For AFNPLPPFPLGF, the protein stability index was 0.706 ± 0.034.
AGAIWGGDSGVG gave a protein stability index of 0.607 ± 0.047.
AGAWGREVVGWG showed a protein stability index of 0.708 ± 0.033.
AGEGGRKGGGSR showed a protein stability index of 0.676 ± 0.014.
In the case of AGGAVGEAGSEG, the protein stability index is reported as 0.6939 ± 0.0027.
AGGGNGGGGGEK showed a protein stability index of 0.663 ± 0.019.
Sequence AGGKRGGDGRWQ has a protein stability index of 0.668 ± 0.014.
AGGLCLGGVGLG showed a protein stability index of 0.674 ± 0.079.
AGGLHRSRPCVD showed a protein stability index of 0.709 ± 0.024.
Sequence AGGSGGEAGSEG has a protein stability index of 0.655 ± 0.043.
With AGGWVGAEGCGG the protein stability index was 0.763 ± 0.024.
Sequence AGHGTHSNSPFA has a protein stability index of 0.693 ± 0.074.
Work on AGLGWGARQGAL yielded a protein stability index of 0.67 ± 0.019.
With AGLVPSSLQSVS the protein stability index was 0.695 ± 0.019.
In the case of AGPGMARERYFY, the protein stability index is reported as 0.634 ± 0.046.
In the case of AGPPPERDPGAS, the protein stability index is reported as 0.684 ± 0.069.
With AGPWMESPTKSC the protein stability index was 0.702 ± 0.023.
In the case of AGQGGWREAGGG, the protein stability index is reported as 0.676 ± 0.027.
With AGRAVAAAVRED the protein stability index was 0.728 ± 0.076.
AGRGRHPRSTWR gave a protein stability index of 0.688 ± 0.053.
For AGRSAHMEVRHE, the protein stability index was 0.712 ± 0.047.
In the case of AGTCVSVGVHRY, the protein stability index is reported as 0.599 ± 0.051.
AGVRFLVIPRPP gave a protein stability index of 0.7182 ± 0.004.
AGVVCGGGWWWA gave a protein stability index of 0.772 ± 0.12.
Sequence AGWPAGARARAP has a protein stability index of 0.712 ± 0.016.
With AHFSRRCKGLFG the protein stability index was 0.741 ± 0.01.
AHQGSENRNMSV was tested, and the protein stability index was 0.688 ± 0.043.
Sequence AIFAPPFPPTPV has a protein stability index of 0.69 ± 0.071.
AILFGSSSWVVV showed a protein stability index of 0.659 ± 0.032.
With AIRPPLPPPTPL the protein stability index was 0.674 ± 0.046.
AIRSSRMPLGSA gave a protein stability index of 0.668 ± 0.07.
With AISAGRTFVEVV the protein stability index was 0.657 ± 0.067.
AKKKHHKYRRNG gave a protein stability index of 0.6542 ± 0.0048.
AKLDMARGGGVV showed a protein stability index of 0.645 ± 0.018.
Sequence AKYNISTMTGHT has a protein stability index of 0.695 ± 0.024.
Work on ALCVPRTGPFFI yielded a protein stability index of 0.737 ± 0.02.
In the case of ALHYEVVGRGYL, the protein stability index is reported as 0.679 ± 0.036.
For ALLGIAGGQAAQ, the protein stability index was 0.714 ± 0.028.
ALLPFLTPLLSR gave a protein stability index of 0.561 ± 0.054.
ALLPLPPSPSLL was tested, and the protein stability index was 0.719 ± 0.0097.
ALLPPPRPLPHP showed a protein stability index of 0.719 ± 0.014.
In the case of ALLTWIFTCIHI, the protein stability index is reported as 0.571 ± 0.039.
Work on ALPAGLRDLPRP yielded a protein stability index of 0.586 ± 0.025.
ALPCLSPVLPFL gave a protein stability index of 0.729 ± 0.014.
In the case of ALPPPPPPSPLL, the protein stability index is reported as 0.642 ± 0.035.
In the case of ALPPSPLLPTLP, the protein stability index is reported as 0.702 ± 0.062.
In the case of ALSELSIDISHI, the protein stability index is reported as 0.632 ± 0.067.
Sequence ALSFFGSCCLPF has a protein stability index of 0.748 ± 0.014.
With ALSGSFVSWLGG the protein stability index was 0.689 ± 0.061.
With ALSLPFERVRDT the protein stability index was 0.692 ± 0.022.
Work on ALTALQTFRITL yielded a protein stability index of 0.638 ± 0.014.
In the case of ALWGHSWHSSLR, the protein stability index is reported as 0.713 ± 0.015.
Work on AMAMSSGQCFSS yielded a protein stability index of 0.67674 ± 0.00043.
For AMSSVRCRLWPM, the protein stability index was 0.761 ± 0.034.
ANECYAEDREIR gave a protein stability index of 0.69 ± 0.027.
For ANQKRTKQQHRR, the protein stability index was 0.722 ± 0.01.
For ANRLNASYQVSD, the protein stability index was 0.6982 ± 0.0038.
For APCRSLLADLAL, the protein stability index was 0.736 ± 0.036.
APDLAVWNLGPH gave a protein stability index of 0.68899 ± 0.00041.
APFLDRSSPRSF showed a protein stability index of 0.707 ± 0.15.
APKCRRRNSSGL showed a protein stability index of 0.68 ± 0.057.
Sequence APKPPPPPPPLP has a protein stability index of 0.709 ± 0.02.
Work on APLPPLRPPPSA yielded a protein stability index of 0.687 ± 0.043.
APNAGPPTRSHR showed a protein stability index of 0.737 ± 0.086.
Work on APNGTPPLSLAS yielded a protein stability index of 0.646 ± 0.017.
With APPARSPPPPRP the protein stability index was 0.7216 ± 0.0026.
Work on APPFRYLNSVSC yielded a protein stability index of 0.66 ± 0.034.
APPPALHPPPPH showed a protein stability index of 0.688 ± 0.054.
For APPPLPPLPPSP, the protein stability index was 0.727 ± 0.2.
Work on APPPPGPLPPPS yielded a protein stability index of 0.698 ± 0.025.
Work on APPPPPPLLLSF yielded a protein stability index of 0.626 ± 0.038.
APPPPPPPPRPL showed a protein stability index of 0.642 ± 0.041.
For APPPPQSRASSP, the protein stability index was 0.7379 ± 0.0052.
APPPPSLPVPST showed a protein stability index of 0.739 ± 0.015.
In the case of APPPSVCPRFPI, the protein stability index is reported as 0.796 ± 0.012.
For APRFLGLLCPLL, the protein stability index was 0.655 ± 0.0089.
APRIILTCRSLT was tested, and the protein stability index was 0.5 ± 0.1.
Work on APRLRRHPPHEP yielded a protein stability index of 0.696 ± 0.0079.
Sequence APSPPPRISAWL has a protein stability index of 0.749 ± 0.045.
APSPSPPPPLPN gave a protein stability index of 0.685 ± 0.058.
In the case of APSQGPSRPGVV, the protein stability index is reported as 0.708 ± 0.038.
Work on APTPACTRPSVA yielded a protein stability index of 0.693 ± 0.033.
Work on APTPPPVLLTPP yielded a protein stability index of 0.6694 ± 0.0063.
For APTRPPRPNLFH, the protein stability index was 0.625 ± 0.018.
APVGTPARPSLS showed a protein stability index of 0.725 ± 0.016.
With APVLSVSFFSFL the protein stability index was 0.718 ± 0.013.
Work on AQPGRLHLSCES yielded a protein stability index of 0.688 ± 0.052.
With ARAAQPVHFLNL the protein stability index was 0.715 ± 0.059.
ARAPPLPPPPAL showed a protein stability index of 0.698 ± 0.0076.
For ARGARTCDLIRW, the protein stability index was 0.717 ± 0.035.
For ARLHIPSLLPAS, the protein stability index was 0.6798 ± 0.0057.
ARPLPPSLPPPP gave a protein stability index of 0.7356 ± 0.0046.
ARPVSRWCEASY gave a protein stability index of 0.645 ± 0.025.
With ARQSVYNDLVYV the protein stability index was 0.582 ± 0.0065.
ARRPHSPLCTTR was tested, and the protein stability index was 0.7101 ± 0.00075.
ARRTSAGVWCTA gave a protein stability index of 0.705 ± 0.04.
In the case of ARSLPSPTLPFL, the protein stability index is reported as 0.697 ± 0.058.
With ARSQTGRTYFSP the protein stability index was 0.694 ± 0.062.
ARTRRPTPGRPI was tested, and the protein stability index was 0.719 ± 0.066.
ARVAFARLPNVC showed a protein stability index of 0.66 ± 0.016.
With ARVIISGYWILY the protein stability index was 0.519 ± 0.048.
ARVRAQIRDGRT was tested, and the protein stability index was 0.6403 ± 0.0021.
ASEKFGIMSTML was tested, and the protein stability index was 0.662 ± 0.045.
ASGSLGQIFSGL gave a protein stability index of 0.699 ± 0.026.
Work on ASHPESHIAWPA yielded a protein stability index of 0.691 ± 0.03.
ASLLSCRLPCLC showed a protein stability index of 0.518 ± 0.026.
ASPFGFLFCCGG gave a protein stability index of 0.654 ± 0.025.
In the case of ASPLFPLPPPPP, the protein stability index is reported as 0.71 ± 0.004.
Work on ASPPPEVCLSHR yielded a protein stability index of 0.682 ± 0.0092.
In the case of ASQTTKAKNTGH, the protein stability index is reported as 0.6688 ± 0.006.
For ATATPPAPPPSP, the protein stability index was 0.686 ± 0.011.
For ATLCVVSKLGLC, the protein stability index was 0.589 ± 0.0069.
For ATSPTPALPPLL, the protein stability index was 0.743 ± 0.14.
Sequence ATVDLDLLSTCL has a protein stability index of 0.7 ± 0.02.
With ATVPLVTPLPHF the protein stability index was 0.697 ± 0.042.
With AVAPPISTLLPV the protein stability index was 0.743 ± 0.04.
AVEVRATVWWWW gave a protein stability index of 0.53259 ± 0.00014.
AVFHPPPILPPP showed a protein stability index of 0.70154 ± 0.00061.
